Test results reported in the DeepSol protein solubility set.

Assay: soluble on expression in E. coli; label from the status in PepcDB or PDB records

## MTAIPASARIVLDTEIPARVPWSAIIRKGQTLRIVDSHGQQAVDTLFYAADDHGERYSGQDTLRAQGSAYVTTGTRIMSTEGRTMLRMVADSCGLHDTSAGACSCESNTVRFGHQTKYLHACRENFVLEAAKHGLSKRDIVPNLNFFMNVPLDPDGNFTVVDGVSKPGDYVEMVAEMDVLCLISNCPQVNNPCNGFFPTPIQVVIYEAGEDLEHHHHHH
  soluble on expression in E. coli: soluble

## MSLAHGIPSQGKVTITVDEYSSNPTQAFTHYNINQSRFQPPHVHMVDPIPYDTPKPAGHTRFVCISDTHSRTDGIQMPYGDILLHTGDFTELGLPSEVKKFNDWLGNLPYEYKIVIAGNHELTFDKEFMADLVKQDYYRFPSVSKLKPEDFDNVQSLLTNSIYLQDSEVTVKGFRIYGAPWTPWFNGWGFNLPRGQSLLDKWNLIPEGIDILMTHGPPLGFRDWVPKELQRVGCVELLNTVQRRVRPKLHVFGGIHEGYGIMTDGYTTYINASTCTVSFQPTNPPIIFDLPNPQGSEGHHHHHH
  soluble on expression in E. coli: soluble

## MLSALLIAKRYSSKEDTMPHLFPDLPYAYDALEPYIDTKTMEVHYSKHHRTYYDKFLSAIKGTEHEDRPLSEIFARVSTLPAAVRNHGGGYYNHIVYWNCMKPNAGGEPQGELAAEIERQFGSFAQFKEAFSQAAVNTFGSGFVWLIVQQGQLSITSTSNQDNPLMDVVAVRGEPILALDVWEHAYYIRYQNRRPEYIDAWWNVVNWEAVSENYAIALTQAA
  soluble on expression in E. coli: not soluble

## MTMDFQITRRYPCSYLPGELARSRIVVTDDTLSDSNTYAQLIQQGYRRSGSLIYRPDCDYCHACIPVRIPVELFDPNRTQRRIWKRHQHLQIAWHPLHFDPVHFDLYQRYQKSRHTNGSMDQDDENGRKQYRDFLLKSTVDSFLVTFHENEQLRMVSIIDRLPDGLSPVYTFFEPDVPGSSYGTFNILWQTAQCRADRLPYLYLGYWIANSRKMHYKANFQPLQYLIDNQWQYRTTNRLEHHHHHH
  soluble on expression in E. coli: not soluble

## MKTRESSVGLKFRKFNRFYTNVLGFLNEHIYDSPFSLTETRILFEIYNTPNCTAKALQDKLGLDRGYVSRIVKQFEKEDLIYKQRSKDDARHHYIFVTETGKTIYKKLEEKANEQVELMLKVINQKEQHKLAEAMAEIEAILSQSLSARASEISIRDYFLSEDLQLLIEKQRQFYAEAHGWDDTFLAYLQETFDADIEKIWIAESGGKFAGSVGLVKHDEKTVQLRWFLVDADFRGRGLGTQLLEHLVAYCQDMKFDRIFLWTVSTMAEARPLYKKFGFRISEVKQEAPLWGQQLTEERWDLELS
  soluble on expression in E. coli: soluble

## GPGSMSNAVSGVIDARWMRFLRECKQRELVAEIEVLRRTFEATLDRKKGFSTTLLEELSVAEEQCRHAFRSHMDVVSSLLQLHAARTKDLEADLDANVAEMQQDFEYERAELELKHMIEMDDLRLILDNMAAEAEMLEKKLQEETSEGHETAAEKMDEAMREMEADLNKVEDGLRGELDSRYKKFMSAAQANMKEYTAKCKEDQETTERIAAQLRKIEKLQSSVSSWRTNIARNAKEWEDRNAAIQAERDATLSHLKKLKDKMQRWRELQSKALVELVKEANATEEALQATSKRAVRLLRLVELCKPMETEREQVLLHEANISSAAVEAETKRRVAAESSGNAQDDVLRGGDAAPAANEQWLSLDRFWVKHNKVVLDNAALTQERFLLEEENRVLQEVLKQYLDDVSISDQVMRQSNTLLLTQGANYNVVQAANASDNSVVRGYNVIEGNKFVNDQSRQAISH
  soluble on expression in E. coli: not soluble

## MGSDKIHHHHHHMSQDVPGNLLDEIRILRSPKGYLYAGLPKFRALFGRDSIISSIQLIDLFPDIAQNTVIYLKDLQGRKLDYSIGEYPGKILHEYYDDEKIFLDRKRSIPWLNSRINYFSVDSTPLFILLIKNLFLRNLIDIEQFKDSIMMAMQFLIAYSSSDGLITYDKALLGAGLMSQSWRDGVGDIMDRLKSPVATVGVQGYFYESADFVLNLFPDSLIEESLPDLKDFYSKMREILENKFWLEETGYYGLAVDGDGVIEQAATSDPGHLIGSGILTRSRERDVIDRLFESDLLTDYGIRTLSAKDPRFDPKAYQRGSIWPQDNWIIADGIKRRGYLKEYRELRERLIAAYEYYGRMPEYFGVDRYGKIMDLSKLRIKPCYPQAWSTGAIINFVTFK
  soluble on expression in E. coli: not soluble

## HHHHHHQVQLVQSGAEVKKPGASVKVSCQASGYRFSHFTVHWVRQAPGQRFEWMGWINPYNGNKEFSAKFQDRVTFTADTSANTAYMELRSLRSADTAVYYCARVGEWGWDDSPYDNYYMDVWGKGTTVIVSSGGGGSGGGGSGGGGSEIVLTQAPGTLSLSPGERATFSCRSSHSIRSRRVAWYQHKPGQAPRLVIHGVSNRASGISDRFSGSGSGTDFTLTITRVEPEDFALYYCQVYGASSYTFGQGTKLERK
  soluble on expression in E. coli: soluble

## MGSDKIHHHHHHMEAVERVNLLGLDGAALSELVGQWGGKPFRARQLQRWVHQRGADSFDAMTDLARDFRAQLARDCVIEALPVNTEQRSSDGTRKWLFDVGQGNAIETVFIPEDDRGTLCISSQAGCVVNCRFCSTGHQGFNRNLRASEIIGQLWWAKRVLEAAADTARLPGGKAGEDTRVISNVVMMGMGEPLLNYDQVLPALRLMLDDNAYGLSRRRVTVSTSGVVPMMDRLSQDCPVALAVSLHAPNDALRDELVPLNKKYPLNALLAACERYLAHAPRDFITFEYCMLDGINDTDQHARELIQLARQVRCKLNLIPFNPFPASGLKRSPSARVRVFAQRLMDAGIVTTVRKTRGDDIDAACGQLAGEVRDRTRITERNATRTIPIQQVHA
  soluble on expression in E. coli: not soluble

## MPAIEVIRSAKRTKTVQARIVDGQIQVRIPARMSKAEEEKAVGEIVAKLKRRTQSAVSSDADLIERAHKLNKTVLEGRARVESIRWVSNQKGRWGSCTVATAEIRISDRLKHVPDYVLDAVLVHELTHTFIAGHSAEFWEWADKTPLAERAKGYLEAYQRWGLEHHHHHH
  soluble on expression in E. coli: soluble

## MSSTKKDIKVYVNYRDEYAEPKIISALKNSGKELTFTNSAKEANFQWAQYEDIDFDEVYKNPKTKLCCSYVIRKALIRKEYLWRTVITYLAKHPDSILSKSVPEAYSLELDYAEFLDDSLMEAYELRQELEENATKNISEKQWYILKPSMCDRAQGIRLFSTIEELQAIFDSFDDEESESEEAGLEEKGDITVAFNNKIVISQIRNFLVQKYISKPLLLDHRKFHIRAYVLATGALSVYLFNEMLCLLARDKYKKPTPDPDLLFSHLSNTCLQGDNVEQSSIRDFWNTSIENKDDIFKSILNIIGDVFEAAATTQGIHFQPLENCFEIFGVDFLVDCESQVYLLEVNSYPDFKQTGKNLSNIIENLFSAVVETAIIPFFESSTKRNVDSKLTLAKKLQLFGFR
  soluble on expression in E. coli: soluble

## MHYVTPDLCDAYPELVQVVEPMFSNFGGRDSFGGEIVTIKCFEDNSLVKEQVDKDGKGKVLVVDGGGSLRRALLGDMLAEKAAKNGWEGIVVYGCIRDVDVIAQTDLGVQALASHPLKTDKRGIGDLNVAVTFGGVTFRPGEFVYADNNGIIVSPQALKMPELEHHHHHH
  soluble on expression in E. coli: soluble

## MNVEINGKSLELSFGFKFLREIDNRLGLKVEQASIGQGVSMLPVGLESGNPVVIGEVLIASTSHLKKQAITINNIDEALDEIAENIGLEEFGSDILTELGKRPMTRNLVEVVETEEKPAEALEHHHHHH
  soluble on expression in E. coli: not soluble

## MLNVEPSFAEELRSSGVSLSATYLGSVPVVESINVMVSEMRVQVVSLVFLMA
  soluble on expression in E. coli: not soluble

## MGHHHHHHSHVAQFPTPFGGSLDTWAITVEERAKHDQQFHSLKPISGFITGDQARNFFFQSGLPQPVLAQIWALADMNNDGRMDQVEFSIAMKLIKLKLQGYQLPSALPPVMKQQPVAISS
  soluble on expression in E. coli: soluble

## MIDLYFAPTPNGHKITLFLEEAELDYRLIKVDLGKGGQFRPEFLRISPNNKIPAIVDHSPADGGEPLSLFESGAILLYLAEKTGLFLSHETRERAATLQWLFWQVGGLGPMLGQNHHFNHAAPQTIPYAIERYQVETQRLYHVLNKRLENSPWLGGENYSIADIACWPWVNAWTRQRIDLAMYPAVKNWHERIRSRPATGQALLKAQLGDERSDS
  soluble on expression in E. coli: soluble

## GPGSMASFDMLREDILDVFNVFDEEGTGSISMQELTRAIYTITGTRISRSDLRSLVQAVQEEMKEEAHARKTPLGVDLPPRANSLETSISPNADGENDAVDSSLFVAVVLKTLNRHTYEQELLFTFHLLEDKNYPGFITKDSLKKAAAEMEEHLTDQEVNEMFDKLVTGISSSAVDFTTFTSVLEAAKRMDD
  soluble on expression in E. coli: soluble

## MFLNTNEILDYSALKYMPNLKSLTVANAKIKDPSFFANLKQLNHLALRGNEFSDVTPLVKMDHLDSLDLSNNKITNVAPLIEMKNVKSLYLSGNQIEDVTALAKMEQLDYLNLANNKITNVAPLSALKNVTYLTLAGNQIEDIKPLYSLPLTDLVLTRNKVKDLSGIEQMKQLEELWIGKNEIKDVTPLSKMTQLKQLHLPNNELKDITPLSSLVNLQKLDLEANYISDLTPASNLKKLVFLSFVANEIRDVRPVIELSKTAYINVQNQKVFLEETEVNKEVKVPIYEKDGKISTKIRLKGEGGTYSNDAVKWSTPGEKVYEFGVKDPFADTGIFFTGSVIQNVVESKADNTSKEDNTSKEDAKVEVVEFKDVPKGHWSEEAIHYLAKENIFKGYGNGQFGFGDSITRGQVASLVQRYLKLENKVEQKERFTDTKGHMFEQDIATVAQAGIMQGDGTGEFRPDGVLTRYEMSVVLYKVFQLKEDGNNKVNFKDVPTGHWAEGYVKALVDNNISKGDGKERFLGDDFVTREQYAQFLYNAITK
  soluble on expression in E. coli: not soluble

## QQLSMELESARAFNASVLANVAEGILVVDEAGNISFANPAICQLLNASVDQLRGTQVLDYVIEPQVSSWLESGFYQHYRKADTYRVHDAILRTAQGSQLPVALSCAALPAEQKAMVLTVLDMS
  soluble on expression in E. coli: not soluble

## MDNRNHSANVLIHLHMPKTGGTTLKKIIKRNYDSRKSVDVYEEHHKLPGIFKGLSKQNIECVQGHLPFGVHEYFNRPTTYITMLRDPVDRVISEYYFIRNIEWHNLHESVMKMSLEEYQGLPKNRNLQTRYILGGQLTSVTEVNRAKNILKNHFAVVGLTEKFDASLFLMKEMFNWKQVAYQKYNVTKKRRSKEEISPKLLEKIAKNNEADLELYAFAKELLAKRIRALDPLSAYRLKRFERKHQQGFHGKRDRMAGDPLEHHHHHH
  soluble on expression in E. coli: soluble

## MQLSWKDIPTVAPANDLLDIVLNRTQRKTPTVIRPGFKITRIRAFYMRKVKYTGEGFVEKFEDILKGFPNINDVHPFHRDLMDTLYEKNHYKISLAAISRAKSLVEQVARDYVRLLKFGQSLFQCKQLKRAALGRMATIVKKLRDPLAYLEQVRQHIGRLPSIDPNTRTLLICGYPNVGKSSFLRCITKSDVDVQPYAFTTKSLYVGHFDYKYLRFQAIDTPGILDRPTEEMNNIEMQSIYAIAHLRSCVLYFMDLSEQCGFTIEAQVKLFHSIKPLFANKSVMVVINKTDIIRPEDLDEERAQLLESVKEVPGVEIMTSSCQLEENVMEVRNKACEKLLASRIENKLKSQSRINNVLNKIHVAQPQARDDVKRTPFIPESVKNLKKYDPEDPNRRKLARDIEAENGGAGVFNVNLKDKYLLEDDEWKNDIMPEILDGKNVYDFLDPEIAAKLQALEEEEEKLENEGFYNSDDEEEIYDGFEASEVDDIKEKAAWIRNRQKTMIAEARNRKSLKNKAIMPRSKLTKSFGKMEEHMSTLGHDMSALQDKQNRAARKNRYVERGSDVVFGDQDALTASTENGVKLRQTDRLLDGVADGSMRSKADRMAKMERRERNRHAKQGESDRHNAVSLSKHLFSGKRGVGKTDFR
  soluble on expression in E. coli: not soluble

## MAAFEYKALDAKGKQKKGTIEGDNARQVRQRLKEQGMIPVEVVEAKAKAAKSSGSVGFKRGIKTAELALITRQLSTLVQSGMPLEECLRAVSEQAEKPRIRTMIAAVRSKVTEGYPLADSLGDYPHVFDELFRSMVAAGEKSGHLDTVLERLAEYVENRQKMRSKLLQA
  soluble on expression in E. coli: not soluble
